One assay relates to S. pneumoniae. Put plainly: Adhesion of pneumococci to buccal cells. It counts as cell-based. To be noted: strain 6303. How it is done: Methods for handling polyphenol oxidase and asparaginase and for observing adhesion by microorganisms were generally as described in the previous Examples with variations to adapt these methods to these bacteria and to buccal cells. In particular, adhesion was measured in a manner similar to that just described for S. pyogenes.

Assay [1] deals with P. aeruginosa culture supernatants. Description: Proteolytic activity of P. aeruginosa culture supernatants on azocoll. To be noted: culture supernatants treated with 50 units/ml asparaginase. Format: biochemical.
Assay [2] relates to Type 1-fimbriated E. coli. Put plainly: Flow cytometric adhesion of type 1-fimbriated E. coli to UECs. It counts as cell-based. The source says: Methods for handling polyphenol oxidase and asparaginase and for observing adhesion by microorganisms were generally as described in the previous Examples with variations to adapt these methods to epithelial cells.
The bacteria were labeled intracellularly with the fluorescein dye CFDA-SE. Median fluorescence intensity of the UECs was taken as a measure of the number of bacteria attached to them. In the Figures below, median fluorescence is converted to % adhesion using control conditions (UEC+untreated bacteria) as 100%.

Assay [3] deals with E. coli / urinary epithelial cells (UECs). Description: Binding of E. coli to urinary epithelial cells, microscopy (Experiment 1). It counts as cell-based. The following applies: FIG. 4; greater with increasing concentration or duration of incubation. How it is done: Urinary epithelial cells (UEC) were obtained by a method known to those of skill in the art. Briefly, the cells were obtained by centrifugation (5000×g) of 200 ml of clean-catch-collected first morning male urine. Cells were washed 3× in PBS and suspended to a density of 1×10^9 cells/ml in an end-over-end apparatus. After 30 minutes mixtures were collected on polycarbonate filters (pore size=10 μm) and washed with three volumes of cold PBS. Filters were pressed onto glass microscope slides which are then heat-fixed and stained with crystal violet for 2 min. Slides were examined at 1000× with phase-contrast microscopy. For each experimental condition 200 UEC's are examined. Adherent bacteria were quantitated as described in previous Examples.

The test system of a further assay is S. pyogenes. Description: Fibronectin binding assay, S. pyogenes. The following applies: polyphenol oxidase 80 U/ml, asparaginase 20 U/ml. Format: cell-based. How it is done: (§1) Wells were filled with human serum fibronectin (50 μg/ml) diluted in carbonate buffer (50 mM Na2CO3—NaHCO3, pH 9.5 overnight). Controls were coated with 1% BSA. The wells were washed three times with PBS and incubated with PBS-Tween (0.5% Tween 20 and 0.05% NaN3) 1 h at 37° C. After attachment, the wells were washed three times with PBS-Tween and allowed to dry. Subsequent assays were as described hereinabove.

Assay [4] relates to S. epidermidis (clinical isolate). Put plainly: Fibronectin binding assay, S. epidermidis. It counts as cell-based. To be noted: polyphenol oxidase 80 U/ml, asparaginase 20 U/ml, untreated 0.17. How it is done:
as §1

Assay [5] has as its system S. sobrinus 6715 glucan-binding lectin. Description: Aggregation of S. sobrinus with high molecular weight dextran T-2000 (standard rate assay). It counts as cell-based, Streptococcus sobrinus. The following applies: cells treated with asparaginase. How it is done:
S. sobrinus 6715 was maintained on tryptic soy agar (Difco, Detroit, Mich.) and grown for experiments in Terleckyj's defined medium or tryptic soy broth (TSB) (Difco) pretreated with dextranase (1 mg of enzyme per g dry medium) and invertase (5 mg per g dry medium) for 2 h each in 5% CO2 at 37° C. for 16-18h. Cultures were centrifuged at 12,000×g for 10 min and washed twice with cold phosphate buffered saline (PBS, 20 mM, pH 7.2). Cells were suspended in PBS to an optical density of 0.8 (A540). Cultures grown in TSB were harvested and suspended in PBS and subsequently treated with dextranase for 1 h, followed by washing two times in PBS.
The standard rate assay published by Drake et al. (Drake D. et al. Infect. Immun. 56:1864-1872 (1988)) was used to study the interaction of S. sobrinus 6715 glucan-binding lectin with high molecular weight dextran. Briefly, bacterial suspensions were adjusted to an optical density of 0.75-0.90 in PBS, and 3-ml suspensions were added to test tubes (13×100 mm). Dextran T-2000 was added at a final concentration of 10 1μg/ml and the suspensions were vortexed for 5 sec. Control tubes received PBS. The decrease in optical density was continuously monitored spectrophotometrically for 5 min. Rate constants were obtained from the slopes of first-order plots of ln A/A0 (A=observed optical density; A0 optical density at time zero) versus time in minutes. […]

Assay [6] concerns proteolytic activity of the P. gingivalis. Put plainly: Hydrolysis of collagen substrate (azocoll) by P. gingivalis. Format: cell-based. The source says:
The asparaginase and polyphenol oxidase thus not only affect the adhesion and/or hemagglutination, but also the proteolytic activity of the P. gingivalis.

Another assay has as its system S. aureus. Description: Collagen binding assay, S. aureus. Format: cell-based. How it is done: Wells were filled with 1 mg/ml soluble collagen overnight at 4° C. Control wells were coated with 1% BSA. The protein solutions were removed and permitted to stand at 37° C. for 1 h. A solution of 2% BSA was added to the wells to block unoccupied sites and prevent non-specific binding of bacteria. After 30 min, BSA was removed and the wells were washed once with distilled water. Finally, the bacterial suspensions (100 μl, OD 1.4) were added to the plates and incubated at 37° C. for 2 h. Unbound bacteria were removed by washing the wells three times with PBS containing 0.01% Tween 20. The wells were dried at 37° C. for 30 min and stained with crystal violet for 15 min. Wells were rinsed with distilled water and dried at 37° C. for 2 h. After adding 100 μl of 95% (v/v) ethanol to each well the plates were then shaken to release the stain and a reading of 550 nm was carried out.

B1: asparaginase: enzyme that catalyzes hydrolysis of the side chain amide group of asparagine to a carboxyl group; E. coli asparaginase (protein, UniProt P00805 23-348, looked up)
L-asparaginase 2: LPNITILATGGTIAGGGDSATKSNYTVGKVGVENLVNAVPQLKDIANVKGEQVVNIGSQDMNDNVWLTLAKKINTDCDKTDGFVITHGTDTMEETAYFLDLTVKCDKPVVMVGAMRPSTSMSADGPFNLYNAVVTAADKASANRGVLVVMNDTVLDGRDVTKTNTTDVATFKSVNYGPLGYIHNGKIDYQRTPARKHTSDTPFDVSKLNELPKVGIVYNYANASDLPAKALVDAGYDGIVSAGVGNGNLYKSVFDTLATAAKTGTAVVRSSRVPTGATTQDAEVDDAKYGFVASGTLNPQKARVLLQLALTQTKDPQQIQQIFNQY
Regarding B1, in the assay with S. pneumoniae, the “adhesion of S. pneumoniae to buccal cells” value is “able to reduce adhesion”. Also, the “proteolytic activity on azocoll” value in assay [1] is recorded as “markedly reduced proteolytic activity”. The “decrease in adhesion to UECs” value is on record as 13% in assay [2] (asparaginase <2 units/ml) and 85-90% in [2] (asparaginase >2 units/ml). In assay [2] (asparaginase singly, 10 units/ml), the “prevention of adhesion to UECs” value was 90%. The “reduction in adhesion to UECs” value in [2] (bacteria first incubated with MUMB 50 mM, then polyphenol oxidase 141 units/ml or asparaginase 10 units/ml) came out at 50%. Besides, the “increase in adhesion to UECs” value in assay [2] (mannopyranoside 50 mM followed by asparaginase 10 units/ml) was 40%. Besides, in [3], the “binding of bacteria to urinary epithelial cells” value was “reduced binding”. Further, the “Absorbance (fibronectin)” value with S. pyogenes (S. pyogenes M4, untreated 0.32) came to 0.15; with S. pyogenes (S. pyogenes M24, untreated 0.33) it was 0.21; in assay [4], 0.16. For the same molecule, the “ability of cells to aggregate high molecular weight dextrans” value in [5] is listed as “reduced”. Also, the “hydrolysis of the collagen substrate (azocoll)” value in assay [6] is reported as “reduction of the hydrolysis”. For the same molecule, the “Absorbance (collagen)” value is on record as 0.30 in the assay on S. aureus (S. aureus Cowan, untreated 0.47) and 0.26 in the assay on S. aureus (S. aureus Wood, untreated 0.40).

Values taken from patent publication US20020009436A1, “Methods and compositions for inhibiting adhesion by microorganisms” (priority 1999, published 2002).
